Molecular target: the molecule itself
Test: crystal structure

B1: mZP2-N2N3 (mouse ZP2 NTR ΔN1 construct) (domain or fragment, UniProt P20239 135-360, looked up)
chain: PAIQAETHEISEIVVCRRDLISFSFPQLFSRLADENQNVSEMGWIVKIGNGTRAHILPLKDAIVQGFNLLIDSQKVTLHVPANATGIVHYVQESSYLYTVQLELLFSTTGQKIVFSSHAICAPDLSVACNATHMTLTIPEFPGKLESVDFGQWSIPEDQWHANGIDKEATNGLRLNFRKSLLKTKPSEKCPFYQFYLSSLKLTFYFQGNMLSTVIDPECHCESPVS
binding result: binds

From publication PMC10976854 (Cell, 2024)
